T1: hRev1 330-833 EY (human, UniProt Q9UBZ9 330-833, E466A;Y470A)
T1 sequence: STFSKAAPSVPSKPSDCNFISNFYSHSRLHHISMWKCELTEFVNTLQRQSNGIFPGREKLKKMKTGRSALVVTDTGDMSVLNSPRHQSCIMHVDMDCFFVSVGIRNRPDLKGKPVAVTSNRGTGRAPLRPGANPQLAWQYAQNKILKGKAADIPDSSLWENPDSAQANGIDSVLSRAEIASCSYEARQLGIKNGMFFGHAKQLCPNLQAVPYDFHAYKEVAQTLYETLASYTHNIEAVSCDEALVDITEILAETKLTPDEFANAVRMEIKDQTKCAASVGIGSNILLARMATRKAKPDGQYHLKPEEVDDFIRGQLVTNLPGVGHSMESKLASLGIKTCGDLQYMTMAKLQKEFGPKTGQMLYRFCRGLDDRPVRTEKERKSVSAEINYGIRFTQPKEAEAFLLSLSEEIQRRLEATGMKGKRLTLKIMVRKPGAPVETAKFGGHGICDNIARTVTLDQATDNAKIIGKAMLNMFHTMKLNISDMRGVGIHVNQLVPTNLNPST

T2: yRev1 305-746 (Saccharomyces cerevisiae, UniProt P12689 305-746)
T2 sequence: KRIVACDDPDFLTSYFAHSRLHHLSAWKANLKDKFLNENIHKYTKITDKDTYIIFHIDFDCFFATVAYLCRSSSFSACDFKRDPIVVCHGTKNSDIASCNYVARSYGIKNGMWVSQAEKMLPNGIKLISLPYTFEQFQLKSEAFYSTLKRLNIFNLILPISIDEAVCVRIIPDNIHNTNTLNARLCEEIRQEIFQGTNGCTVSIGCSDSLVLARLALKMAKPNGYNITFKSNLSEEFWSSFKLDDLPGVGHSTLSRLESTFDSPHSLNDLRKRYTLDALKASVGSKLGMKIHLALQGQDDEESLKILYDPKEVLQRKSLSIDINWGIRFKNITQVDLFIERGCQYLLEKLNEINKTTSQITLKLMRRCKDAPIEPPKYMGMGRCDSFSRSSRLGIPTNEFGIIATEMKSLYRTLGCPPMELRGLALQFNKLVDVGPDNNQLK

T3: hRev1 330-833 WT (human, UniProt Q9UBZ9 330-833)
T3 sequence: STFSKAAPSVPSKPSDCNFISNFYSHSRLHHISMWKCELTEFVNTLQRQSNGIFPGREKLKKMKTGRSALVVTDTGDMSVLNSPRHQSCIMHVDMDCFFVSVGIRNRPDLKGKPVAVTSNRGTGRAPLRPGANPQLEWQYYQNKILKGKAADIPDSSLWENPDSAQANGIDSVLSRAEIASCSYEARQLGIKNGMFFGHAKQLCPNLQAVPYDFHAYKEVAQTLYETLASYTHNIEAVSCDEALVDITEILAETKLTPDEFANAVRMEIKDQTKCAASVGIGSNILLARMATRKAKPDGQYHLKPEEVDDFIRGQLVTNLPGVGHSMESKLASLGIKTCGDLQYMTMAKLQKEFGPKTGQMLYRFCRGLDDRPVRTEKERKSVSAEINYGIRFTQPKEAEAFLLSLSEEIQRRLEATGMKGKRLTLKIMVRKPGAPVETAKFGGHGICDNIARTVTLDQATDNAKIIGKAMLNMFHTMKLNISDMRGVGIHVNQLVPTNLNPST


Experiments:
Assay in all cases: fluorescence polarization
[1] = molecular target: T1, hRev1 330-833 EY
[2] = molecular target: T2, yRev1 305-746
[3] = molecular target: T3, hRev1 330-833 WT

| Binder | Kd [1] [nM] | Kd [2] [nM] | Kd [3] [nM] |
| --- | --- | --- | --- |
| GTGAGATGTTGACCATGGGTGCGTCTGCGGCTGGCTCGAGGC (ssDNA) [ss-42-mer non-G4] | 270 ± 50 | 340 ± 60 | 85 ± 11 |
| 13/42-mer non-G4 (mixed) DNA 1: GTGAGATGTTGACCATGGGTGCGTCTGCGGCTGGCTCGAGGC DNA 2: TTTGCCTCGAGCCAGC | 250 ± 30 | – | 230 ± 30 |
| 23/42-mer non-G4 (mixed) DNA 1: GTGAGATGTTGACCATGGGTGCGTCTGCGGCTGGCTCGAGGC DNA 2: TTTGCCTCGAGCCAGCCGCAGACGCA | 300 ± 40 | 460 ± 50 | 210 ± 30 |
| p/t non-G4 Myc (mixed) DNA 1: AGCGTGCGTAGCGTGCGTTATGAGATGAT DNA 2: ATCATCTCATA | 830 ± 120 | 480 ± 40 | – |
| TGCTTGCTGTGCTTGCTATGAGATGAT (ssDNA) [ss non-G4 TBA] | 150 ± 20 | 450 ± 70 | – |
| TGAGGGTGGGTAGGGTGGGTGCGTCTGCGGCTGGCTCGAGGC (structured_DNA) [ss-42-mer Myc G4] | 87 ± 10 | 230 ± 50 | 4 ± 1 |
| 13/42-mer G4 (mixed) DNA 1: TGAGGGTGGGTAGGGTGGGTGCGTCTGCGGCTGGCTCGAGGC DNA 2: TTTGCCTCGAGCCAGC | – | – | 31 ± 6 |
| 23/42-mer G4 (mixed) DNA 1: TGAGGGTGGGTAGGGTGGGTGCGTCTGCGGCTGGCTCGAGGC DNA 2: TTTGCCTCGAGCCAGCCGCAGACGCA | – | – | 88 ± 12 |
| p/t non-G4 TBA (mixed) DNA 1: TGCTTGCTGTGCTTGCTATGAGATGAT DNA 2: ATCATCTCATA | 230 ± 30 | 450 ± 30 | – |
| TTGCGTTAGCGTTAGCGTTAGCGATATGAGATGAT (ssDNA) [ss non-G4 Telo-4] | – | 310 ± 40 | – |
| AGCGTGCGTAGCGTGCGTTATGAGATGAT (ssDNA) [ss non-G4 Myc] | 650 ± 130 | 340 ± 60 | – |
